Test results reported in US20190248900A1.

Columns and labels:
[1] = biological target: human PD-1 (NM_005018.2) over-expressed on cells (human) (UniProt Q15116); test: flow cytometry, 18 nM, panel 45D6
[2] = biological target: human PD-1 (NM_005018.2) over-expressed on cells (human) (UniProt Q15116); test: flow cytometry, 18 nM, panel 49A2
[3] = biological target: T1, ITGA6-Fc; test: ELISA (control row)
T1 sequence (P23229 whole entry, species assumed, looked up): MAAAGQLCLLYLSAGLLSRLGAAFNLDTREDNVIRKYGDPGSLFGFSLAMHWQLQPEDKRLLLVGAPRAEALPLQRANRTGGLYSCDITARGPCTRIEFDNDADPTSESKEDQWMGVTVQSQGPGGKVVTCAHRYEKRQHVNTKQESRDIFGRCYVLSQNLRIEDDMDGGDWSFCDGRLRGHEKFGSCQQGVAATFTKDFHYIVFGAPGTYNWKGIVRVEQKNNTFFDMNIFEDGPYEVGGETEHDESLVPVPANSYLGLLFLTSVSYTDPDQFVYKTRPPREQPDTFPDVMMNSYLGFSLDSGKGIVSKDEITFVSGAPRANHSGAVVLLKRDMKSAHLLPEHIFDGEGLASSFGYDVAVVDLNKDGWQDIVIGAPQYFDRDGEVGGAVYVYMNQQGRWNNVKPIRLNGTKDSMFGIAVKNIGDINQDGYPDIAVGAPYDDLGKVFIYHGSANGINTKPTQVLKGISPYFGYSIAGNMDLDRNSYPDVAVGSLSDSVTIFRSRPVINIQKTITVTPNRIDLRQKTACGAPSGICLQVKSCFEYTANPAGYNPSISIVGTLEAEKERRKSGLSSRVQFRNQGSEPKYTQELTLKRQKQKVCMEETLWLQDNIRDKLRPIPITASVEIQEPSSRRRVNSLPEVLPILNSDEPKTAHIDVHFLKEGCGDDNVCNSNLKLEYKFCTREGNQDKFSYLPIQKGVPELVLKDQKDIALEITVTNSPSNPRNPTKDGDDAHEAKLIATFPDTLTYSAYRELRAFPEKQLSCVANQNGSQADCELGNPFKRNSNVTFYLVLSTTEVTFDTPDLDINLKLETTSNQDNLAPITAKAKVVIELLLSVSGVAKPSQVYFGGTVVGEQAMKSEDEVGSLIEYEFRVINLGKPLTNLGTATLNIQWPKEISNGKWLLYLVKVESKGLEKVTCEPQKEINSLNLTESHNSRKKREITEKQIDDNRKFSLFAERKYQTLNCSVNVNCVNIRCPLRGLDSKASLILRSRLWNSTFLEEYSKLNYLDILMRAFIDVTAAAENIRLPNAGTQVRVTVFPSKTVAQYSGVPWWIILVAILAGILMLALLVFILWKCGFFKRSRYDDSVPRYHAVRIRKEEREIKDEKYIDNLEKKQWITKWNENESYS

[4] = biological target: T1, ITGA6-Fc; test: ELISA, 1 ug/ml

human PD-1 (NM_005018.2) over-expressed on cells (human), sequence (Q15116 25-288): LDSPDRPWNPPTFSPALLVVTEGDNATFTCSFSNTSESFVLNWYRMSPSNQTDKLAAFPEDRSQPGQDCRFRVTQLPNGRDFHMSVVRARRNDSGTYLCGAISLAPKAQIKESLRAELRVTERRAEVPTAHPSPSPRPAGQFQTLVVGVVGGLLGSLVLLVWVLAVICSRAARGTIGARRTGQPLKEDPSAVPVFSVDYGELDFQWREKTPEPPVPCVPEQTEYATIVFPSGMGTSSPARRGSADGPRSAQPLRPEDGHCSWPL
Pembrolizumab (antibody), sequence (VH): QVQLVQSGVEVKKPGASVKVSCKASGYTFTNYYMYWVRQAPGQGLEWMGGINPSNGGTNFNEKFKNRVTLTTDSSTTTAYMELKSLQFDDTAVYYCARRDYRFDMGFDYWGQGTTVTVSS
Pembrolizumab (antibody), sequence (VL): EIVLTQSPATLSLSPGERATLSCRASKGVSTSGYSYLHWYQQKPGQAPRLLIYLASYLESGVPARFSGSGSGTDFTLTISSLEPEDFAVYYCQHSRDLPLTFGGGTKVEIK

Row | Geometric Mean [1] | Geometric Mean [2] | OD490 [3] | OD490 [4] | Substance
1 | 50 | 50 | – | – | IgG (antibody)
2 | – | – | 0.3 | 0.3 | Nivolumab (antibody)
3 | – | – | 0.1 | 0.1 | Pembrolizumab (antibody)
